Test [1] addresses T1, recombinant mouse WISP1/His (mouse, UniProt O54775 23-367).
T1 construct: also called murine WISP1; mWISP1; not shown: His tag
T1 sequence (looked up): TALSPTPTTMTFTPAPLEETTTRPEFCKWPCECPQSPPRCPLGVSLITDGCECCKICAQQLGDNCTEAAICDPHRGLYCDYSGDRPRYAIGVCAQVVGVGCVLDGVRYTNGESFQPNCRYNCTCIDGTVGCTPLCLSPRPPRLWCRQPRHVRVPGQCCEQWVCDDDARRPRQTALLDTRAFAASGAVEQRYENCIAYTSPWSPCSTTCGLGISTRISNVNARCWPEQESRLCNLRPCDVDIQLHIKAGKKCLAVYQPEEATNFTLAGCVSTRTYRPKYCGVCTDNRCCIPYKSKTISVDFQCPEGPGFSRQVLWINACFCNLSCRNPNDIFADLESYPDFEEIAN
In words: ELISA screening. Background: ELISA stands for enzyme-linked immunosorbent assay.

Test [2] deals with T2, recombinant human WISP1/His (human, UniProt O95388 23-367).
T2 construct: also called hWISP1; recombinant human WISP1 protein; not shown: His tag
T2 sequence (looked up): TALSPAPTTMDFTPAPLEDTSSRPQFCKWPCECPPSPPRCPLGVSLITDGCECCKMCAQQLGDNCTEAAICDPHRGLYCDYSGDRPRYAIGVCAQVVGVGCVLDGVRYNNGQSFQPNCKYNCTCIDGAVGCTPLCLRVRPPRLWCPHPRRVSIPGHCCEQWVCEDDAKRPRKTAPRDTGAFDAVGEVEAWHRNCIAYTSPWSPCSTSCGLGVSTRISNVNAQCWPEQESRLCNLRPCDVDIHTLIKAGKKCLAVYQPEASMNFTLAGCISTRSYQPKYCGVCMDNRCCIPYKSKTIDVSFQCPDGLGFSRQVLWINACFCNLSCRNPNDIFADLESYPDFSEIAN
Put plainly: SPR, IgG captured on anti-human Fc CM5 chip, human WISP1/His as analyte, 1:1 Langmuir fit. The method, then:
This example illustrates binding affinities of various anti-WISP-1 antibodies disclosed herein. Briefly, Anti-human Fc antibody (GE, BR-1008-39) was immobilized on CM5 sensor chip to approximately 1000 RU using standard NHS/EDC coupling methodology. Antibodies (about 10 μg/ml) were captured for 60 s at a flow rate 10 μl/min. Recombinant human WISP1/His was serially diluted in running buffer (HBS-EP). All measurements were conducted with a flow rate of 30 μL/min. Surfaces were regenerated with 3M MgCl2 for 60 s. A 1:1 (Langmuir) binding model was used to fit the data.
(SPR reads the build-up and loss of mass on a sensor chip optically.)

The results in this text go back to patent US20170304442A1 (SORRENTO THERAPEUTICS, published 2017).

B1: WIr2C11 (antibody, V domains shown)
VH: QVQLVESGGALVQPGGSLRLSCAASGFTFSDHWLSWVRQAPGKGLEWVSSISSSSRYIHYADSVKGRFTISRDNAKNSLYLQMNSLSAEDTAVYYCAREDTSMATNGFDVWGQGTMVTVSS
VL: AIQLTQSPSSLSASVGDRVTITCRASQGIRNHLGWYQQKPGKAPKRLIYAASSLQSGVPSRFSGSGSGTEFTLTISGLQPEDFATYYCLQHNSYPFTFGQGTRLEIK
notes: Tested as IgG (captured by anti-human Fc); also called Wlr2C11
B1: in test [1], the binding result is on record as “binds”. In addition, in test [2], the Kd (in general, the free concentration of one partner at which half of the binding sites on the other are occupied at equilibrium, for simple one-to-one binding) stood at 81.7 nM; the koff (commonly a measure of how fast the partners let go of each other) was found to be 0.0219 s⁻¹; the kon – broadly, the rate constant with which the complex forms – turned out to be 267000 M⁻¹ s⁻¹.
